Measured values taken from article PMC7181328 (ACS Central Science, 2020).
Numbering of substitutions follows the chain as printed.

B1: β-subunit of the archaeal (Thermoplasma acidophilum) 20S proteasome (natural protein, UniProt P28061 9-211, looked up)
chain: TTTVGITLKDAVIMATERRVTMENFIMHKNGKKLFQIDTYTGMTIAGLVGDAQVLVRYMKAELELYRLQRRVNMPIEAVATLLSNMLNQVKYMPYMVQLLVGGIDTAPHVFSIDAAGGSVEDIYASTGSGSPFVYGVLESQYSEKMTVDEGVDLVIRAISAAKQRDSASGGMIDVAVITRKDGYVQLPTDQIESRIRKLGLIL
B2: α-subunit of the archaeal (Thermoplasma acidophilum) 20S proteasome (natural protein)
chain: MQQGQMAYDRAITVFSPDGRLFQVEYAREAVKKGSTALGMKFANGVLLISDKKVRSRLIEQNSIEKIQLIDDYVAAVTSGLVADARVLVDFARISAQQEKVTYGSLVNIENLVKRVADQMQQYTQYGGVRPYGVSLIFAGIDQIGPRLFDCDPAGTINEYKATAIGSGKDAVVSFLEREYKENLPEKEAVTLGIKALKSSLEEGEELKAPEIASITVGNKYRIYDQEEVKKFL
B3: β7 ring of the rat 20S proteasome (complex, rat (Rattus norvegicus))
chain 1: RFSPYAFNGGTVLAIAGEDFSIVASDTRLSEGFSIHTRDSPKCYKLTDKTVIGCSGFHGDCLTLTKIIEARLKMYKHSNNKAMTTGAIAAMLSTILYSRRFFPYYVYNIIEGLDEEGKGAVYSFDPVGSYQRDSFKAGGSASAMLQPLLDNQVGFKNMQNVEHVPLTLDRAMRLVKDVFISAAERDVYTGDALRICIVTKEGIREETVPLRKD
chain 2: EYLIGIQGPDYVLVASDRVAASNIVQMKDDHDKMFKMSEKILLLCVGEAGDTVQFAEYIQKNVQLYKMRNGYELSPTAAANFTRRNLADCLRSRTPYHVNLLLAGYDEHEGPALYYMDYLAALAKAPFAAHGYGAFLTLSILDRYYTPTISRERAVELLRKCLEELQKRFILNLPTFSVRVIDKDGIHNLENITFTKRSS
chain 3: SVMSYNGGAVMAMKGKNCVAIAADRRFGIQAQMVTTDFQKIFPMGDRLYIGLAGLATDVQTVAQRLKFRLNLYELKEGRQIKPYTLMSMVANLLYEKRFGPYYTEPVIAGLDPKTFKPFICSLDLIGCPMVTDDFVVSGTCSEQMYGMCESLWEPNMDPEHLFETISQAMLNAVDRDAVSGMGVIVHIIEKDKITTRTLKARMD
chain 4: TQNPMVTGTSVLGVKFDCGVVIAADMLGSYGSLARFRNISRIMRVNDSTMLGASGDYADFQYLKQVLGQMVIDEELFGDGHSYSPRAIHSWLTRAMYSRRSKMNPLWNTKVIGGYAGGESFLGYVDMLGVAYEAPSLATGYGAYLAQPLLREVLEKQPVLSQTEARELVERCMRVLYYRDARSYNRFQVATVTEKGVEIEGPLSAQTNWDIAHMISGFE
chain 5: TTTLAFKFQHGVIVAADSRATAGPYIASQTVKKVIEINPYLLGTMAGGAADCSFWERLLARQCRIYELRNKERISVAAASKLLANMVYQYKGMGLSMGTMICGWDKRGPGLYYVDSEGNRISGTAFSVGSGSVYAFGVMDRGYSYDLQVEEAYDLARRAIYQATYRDAYSGGAVNLYHVREDGWIRVSSDNVADLHDKYTSSIP
chain 6: TTIMAVQFDGGVVLGADSRTTTGSYIANRVTDKLTPIHDHIFCCRSGSAADTQAVADAVTYQLGFHSIELNEPPLVHTAASLFKEMCYRYREDLMAGIIIAGWDPQEGGQVYSVPMGGMMVRQSFAIGGSGSSYIYGYVDATYREGMTKDECLQFTANALALAMERDGSSGGVIRLAAIQQSGVERQVLLGDQIPKVTISTLPPP
chain 7: TTIAGVVYKDGIVLGADTRATEGMVVADKNCSKIHFISPNIYCCGAGTAADTDMTTQLISSNLELHSLTTGRLPRVVTANRMLKQMLFRYQGYIGAALVLGGVDVTGPHLYSIYPHGSTDKLPYVTMGSGSLAAMAVFEDKFRPDMEEEEAKKLVSEAIAAGIFNDLGSGSNIDLCVISKSKLDFLRPYSVPNKKGTRFGRYRCEKGTTAVLTEKVTPLELEVLEEIVQTMDTS
modifications: N-terminal acetylation | N-terminal acetylation
B4: PSMA2 subunit of the human 20S proteasome (natural protein, human (HEK293 cells), UniProt P25787 2-234, looked up)
chain: AERGYSFSLTTFSPSGKLVQIEYALAAVAGGAPSVGIKAANGVVLATEKKQKSILYDERSVHKVEPITKHIGLVYSGMGPDYRVLVHRARKLAQQYYLVYQEPIPTAQLVQRVASVMQEYTQSGGVRPFGVSLLICGWNEGRPYLFQSDPSGAYFAWKATAMGKNYVNGKTFLEKRYNEDLELEDAIHTAILTLKESFEGQMTEDNIEVGICNEAGFRRLTPTEVKDYLAAIA
modifications: N-terminal acetylation
B5: PSMA2 subunit of the rat 20S proteasome (natural protein, rat (Rattus norvegicus), UniProt P17220 2-234, looked up)
chain: B4 chain with K226R
modifications: N-terminal acetylation
B6: β7 ring of the yeast (Saccharomyces cerevisiae) 20S proteasome (complex)
chain 1: QFNPYGDNGGTILGIAGEDFAVLAGDTRNITDYSINSRYEPKVFDCGDNIVMSANGFAADGDALVKRFKNSVKWYHFDHNDKKLSINSAARNIQHLLYGKRFFPYYVHTIIAGLDEDGKGAVYSFDPVGSYEREQCRAGGAAASLIMPFLDNQVNFKNQYEPGTNGKVKKPLKYLSVEEVIKLVRDSFTSATERHIQVGDGLEILIVTKDGVRKEFYELKRD
chain 2: MDIILGIRVQDSVILASSKAVTRGISVLKDSDDKTRQLSPHTLMSFAGEAGDTVQFAEYIQANIQLYSIREDYELSPQAVSSFVRQELAKSIRSRRPYQVNVLIGGYDKKKNKPELYQIDYLGTKVELPYGAHGYSGFYTFSLLDHHYRPDMTTEEGLDLLKLCVQELEKRMPMDFKGVIVKIVDKDGIRQVDDFQAQ
chain 3: SDPSSINGGIVVAMTGKDCVAIACDLRLGSQSLGVSNKFEKIFHYGHVFLGITGLATDVTTLNEMFRYKTNLYKLKEERAIEPETFTQLVSSSLYERRFGPYFVGPVVAGINSKSGKPFIAGFDLIGCIDEAKDFIVSGTASDQLFGMCESLYEPNLEPEDLFETISQALLNAADRDALSGWGAVVYIIKKDEVVKRYLKMRQD
chain 4: TQQPIVTGTSVISMKYDNGVIIAADNLGSYGSLLRFNGVERLIPVGDNTVVGISGDISDMQHIERLLKDLVTENAYDNPLADAEEALEPSYIFEYLATVMYQRRSKMNPLWNAIIVAGVQSNGDQFLRYVNLLGVTYSSPTLATGFGAHMANPLLRKVVDRESDIPKTTVQVAEEAIVNAMRVLYYRDARSSRNFSLAIIDKNTGLTFKKNLQVENMKWDFAKDIKGYGTQKI
chain 5: TTTLAFRFQGGIIVAVDSRATAGNWVASQTVKKVIEINPFLLGTMAGGAADCQFWETWLGSQCRLHELREKERISVAAASKILSNLVYQYKGAGLSMGTMICGYTRKEGPTIYYVDSDGTRLKGDIFCVGSGQTFAYGVLDSNYKWDLSVEDALYLGKRSILAAAHRDAYSGGSVNLYHVTEDGWIYHGNHDVGELFWKVKEEEGSFNNVIG
chain 6: TSIMAVTFKDGVILGADSRTTTGAYIANRVTDKLTRVHDKIWCCRSGSAADTQAIADIVQYHLELYTSQYGTPSTETAASVFKELCYENKDNLTAGIIVAGYDDKNKGEVYTIPLGGSVHKLPYAIAGSGSTFIYGYCDKNFRENMSKEETVDFIKHSLSQAIKWDGSSGGVIRMVVLTAAGVERLIFYPDEYEQL
chain 7: TTIVGVKFNNGVVIAADTRSTQGPIVADKNCAKLHRISPKIWCAGAGTAADTEAVTQLIGSNIELHSLYTSREPRVVSALQMLKQHLFKYQGHIGAYLIVAGVDPTGSHLFSIHAHGSTDVGYYLSLGSGSLAAMAVLESHWKQDLTKEEAIKLASDAIQAGIWNDLGSGSNVDVCVMEIGKDAEYLRNYLTPNVREEKQKSYKFPRGTTAVLKESIVNICDIQEEQVDITA
modifications: N-terminal acetylation

Tests used:
[1] = target: the molecule itself; assay: native MS; SID-IM-MS on a Synapt G2 with SID device: two most intense charge states isolated, surface-induced dissociation at 150 V, subcomplexes separated by ion mobility; charge reduced with TEAA (0.1/0.9 TEAA/ammonium acetate, v/v)
[2] = target: B2; assay: as above; details: both partners purified
[3] = target: PSMA6 subunit of the human 20S proteasome (human (HEK293 cells), UniProt P60900 2-246, N-terminal acetylation); assay: as above; details: both partners purified
Sequence of PSMA6 subunit of the human 20S proteasome (P60900 2-246): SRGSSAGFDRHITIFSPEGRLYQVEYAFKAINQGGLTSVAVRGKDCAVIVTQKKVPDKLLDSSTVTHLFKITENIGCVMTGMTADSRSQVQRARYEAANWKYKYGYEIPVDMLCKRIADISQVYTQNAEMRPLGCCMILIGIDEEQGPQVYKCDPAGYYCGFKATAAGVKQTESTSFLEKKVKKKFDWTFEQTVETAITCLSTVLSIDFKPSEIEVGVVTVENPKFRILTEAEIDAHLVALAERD

[4] = target: PSMA6 subunit of the rat 20S proteasome (rat (Rattus norvegicus), UniProt P60901 2-246, N-terminal acetylation); assay: as above; details: both partners purified
Sequence of PSMA6 subunit of the rat 20S proteasome (P60901 2-246): as the sequence (P60900 2-246) above

[5] = target: α7 ring of the yeast (Saccharomyces cerevisiae) 20S proteasome (yeast (Saccharomyces cerevisiae), UniProt P40302 1-234; P23639 2-250; P21242 1-288; P23638 2-258; P32379 1-260; P21243 …, N-terminal acetylation | N-terminal acetylation | N-terminal acetylation | N-terminal acetylation | N-terminal acetylation | N-terminal acetylation); assay: native MS; intact 20S proteasomes, native IM-MS on a modified Synapt G1; 150 mM ammonium acetate, pH 7, ~3 uM; details: both partners purified

| Binder | binding result [1] | also measured |
| --- | --- | --- |
| B1 | binds | binding result [2]: binds |
| B2 | binds | – |
| B3 | binds | – |
| B4 | – | binding result [3]: binds |
| B5 | – | binding result [4]: binds |
| B6 | binds | binding result [5]: binds |
